Test results: patent US20040053347A1

Target: BRCA2 protein, endogenous in cell extracts (human) (UniProt P51587)
Experiment: estimate from co-immunoprecipitation with anti-BRCA2 antibodies

UniProt P51587, sequence (P51587 whole entry): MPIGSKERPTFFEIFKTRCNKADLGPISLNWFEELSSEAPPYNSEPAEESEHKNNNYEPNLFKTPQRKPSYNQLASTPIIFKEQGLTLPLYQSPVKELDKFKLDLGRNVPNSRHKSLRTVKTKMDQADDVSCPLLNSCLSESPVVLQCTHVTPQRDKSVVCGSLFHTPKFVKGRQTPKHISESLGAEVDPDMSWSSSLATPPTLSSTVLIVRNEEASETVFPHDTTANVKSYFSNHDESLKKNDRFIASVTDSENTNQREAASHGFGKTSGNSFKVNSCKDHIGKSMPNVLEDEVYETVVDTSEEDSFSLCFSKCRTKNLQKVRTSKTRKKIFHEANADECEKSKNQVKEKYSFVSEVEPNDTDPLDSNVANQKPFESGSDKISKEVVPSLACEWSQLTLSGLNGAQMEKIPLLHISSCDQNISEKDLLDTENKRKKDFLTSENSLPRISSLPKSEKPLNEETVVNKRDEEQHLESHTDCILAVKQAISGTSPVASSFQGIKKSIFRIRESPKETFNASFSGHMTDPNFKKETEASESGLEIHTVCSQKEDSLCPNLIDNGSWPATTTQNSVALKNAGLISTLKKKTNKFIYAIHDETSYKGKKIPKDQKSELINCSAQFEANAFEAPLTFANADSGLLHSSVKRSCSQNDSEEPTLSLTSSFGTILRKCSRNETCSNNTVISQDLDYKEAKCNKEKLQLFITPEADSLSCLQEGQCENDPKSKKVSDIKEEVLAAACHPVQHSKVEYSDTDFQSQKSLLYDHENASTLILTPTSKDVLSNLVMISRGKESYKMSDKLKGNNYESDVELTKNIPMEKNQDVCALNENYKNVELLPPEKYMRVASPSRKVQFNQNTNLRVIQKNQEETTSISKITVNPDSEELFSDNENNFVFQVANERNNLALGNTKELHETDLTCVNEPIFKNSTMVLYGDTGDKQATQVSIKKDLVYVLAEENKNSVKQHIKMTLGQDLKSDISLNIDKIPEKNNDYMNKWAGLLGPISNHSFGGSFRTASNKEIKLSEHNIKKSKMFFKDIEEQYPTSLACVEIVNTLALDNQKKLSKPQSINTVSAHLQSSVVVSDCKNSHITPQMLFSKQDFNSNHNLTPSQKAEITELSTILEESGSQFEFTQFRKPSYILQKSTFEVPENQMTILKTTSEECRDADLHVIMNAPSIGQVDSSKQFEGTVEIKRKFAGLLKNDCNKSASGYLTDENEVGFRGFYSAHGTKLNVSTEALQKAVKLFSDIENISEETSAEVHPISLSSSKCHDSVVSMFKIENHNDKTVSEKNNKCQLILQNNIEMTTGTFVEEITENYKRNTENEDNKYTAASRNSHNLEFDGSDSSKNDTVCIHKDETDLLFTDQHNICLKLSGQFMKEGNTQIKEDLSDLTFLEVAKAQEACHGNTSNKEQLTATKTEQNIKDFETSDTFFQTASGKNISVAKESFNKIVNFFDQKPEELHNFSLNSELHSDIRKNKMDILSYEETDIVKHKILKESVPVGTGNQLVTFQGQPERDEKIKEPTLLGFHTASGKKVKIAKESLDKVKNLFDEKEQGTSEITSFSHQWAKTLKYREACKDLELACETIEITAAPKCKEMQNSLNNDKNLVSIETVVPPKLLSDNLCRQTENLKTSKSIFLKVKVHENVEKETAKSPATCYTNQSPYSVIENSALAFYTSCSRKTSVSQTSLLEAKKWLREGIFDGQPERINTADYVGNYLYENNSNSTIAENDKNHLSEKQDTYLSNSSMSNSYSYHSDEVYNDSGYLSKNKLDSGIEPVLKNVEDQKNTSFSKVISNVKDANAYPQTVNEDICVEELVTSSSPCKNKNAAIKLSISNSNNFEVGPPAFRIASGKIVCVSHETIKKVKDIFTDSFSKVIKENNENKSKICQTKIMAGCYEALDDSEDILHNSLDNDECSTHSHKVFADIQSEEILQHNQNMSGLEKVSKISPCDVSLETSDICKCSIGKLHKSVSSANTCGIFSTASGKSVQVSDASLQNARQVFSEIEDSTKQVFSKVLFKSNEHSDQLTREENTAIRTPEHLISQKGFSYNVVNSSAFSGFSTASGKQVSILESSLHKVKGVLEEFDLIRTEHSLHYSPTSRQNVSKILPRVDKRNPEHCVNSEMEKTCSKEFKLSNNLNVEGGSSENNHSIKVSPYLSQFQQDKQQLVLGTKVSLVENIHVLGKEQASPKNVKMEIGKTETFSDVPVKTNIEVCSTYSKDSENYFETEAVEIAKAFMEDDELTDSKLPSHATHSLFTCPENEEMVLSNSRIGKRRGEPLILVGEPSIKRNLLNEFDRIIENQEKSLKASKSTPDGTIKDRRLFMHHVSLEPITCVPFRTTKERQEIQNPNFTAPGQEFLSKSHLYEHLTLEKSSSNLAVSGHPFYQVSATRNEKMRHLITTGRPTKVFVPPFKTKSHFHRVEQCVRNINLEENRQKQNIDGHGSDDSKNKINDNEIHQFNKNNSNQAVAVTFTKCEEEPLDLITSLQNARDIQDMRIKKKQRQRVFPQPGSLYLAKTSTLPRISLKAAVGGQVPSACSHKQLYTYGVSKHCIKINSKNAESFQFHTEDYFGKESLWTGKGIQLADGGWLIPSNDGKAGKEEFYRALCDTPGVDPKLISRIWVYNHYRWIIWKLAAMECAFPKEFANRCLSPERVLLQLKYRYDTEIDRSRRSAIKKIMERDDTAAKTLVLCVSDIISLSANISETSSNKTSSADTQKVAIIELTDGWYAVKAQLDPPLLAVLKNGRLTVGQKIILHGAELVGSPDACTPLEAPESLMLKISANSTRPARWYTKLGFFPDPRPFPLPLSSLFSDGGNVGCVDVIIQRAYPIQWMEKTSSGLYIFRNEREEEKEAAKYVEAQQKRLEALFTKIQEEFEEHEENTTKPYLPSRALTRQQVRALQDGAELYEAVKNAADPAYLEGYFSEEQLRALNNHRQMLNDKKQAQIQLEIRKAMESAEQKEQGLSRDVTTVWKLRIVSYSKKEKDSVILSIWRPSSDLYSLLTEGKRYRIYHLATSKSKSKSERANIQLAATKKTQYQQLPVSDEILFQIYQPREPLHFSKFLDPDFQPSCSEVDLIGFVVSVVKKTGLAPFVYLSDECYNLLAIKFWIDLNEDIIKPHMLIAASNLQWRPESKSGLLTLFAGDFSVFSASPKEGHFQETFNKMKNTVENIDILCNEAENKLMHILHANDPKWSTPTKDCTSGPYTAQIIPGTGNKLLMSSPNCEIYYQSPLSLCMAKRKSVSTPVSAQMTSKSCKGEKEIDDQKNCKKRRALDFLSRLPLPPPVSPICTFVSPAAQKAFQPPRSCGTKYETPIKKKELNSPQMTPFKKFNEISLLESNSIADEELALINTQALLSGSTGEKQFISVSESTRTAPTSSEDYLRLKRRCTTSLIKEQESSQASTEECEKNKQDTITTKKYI

percent of endogenous BRAF35 present in the BRCA2 complex: 2 to 4%
Substance: BRAF35, endogenous protein in HeLa or MCF7 cell extracts
